Source: CN104974246A (INST PASTEUR SHANGHAI CAS, dated 2015)

What was measured:
Test in all cases: cell-based or functional assay
[1] = molecular target: HCV 2a亚型 PR79 毒株的 E2蛋白 (on virus) (hepatitis C virus subtype 2a, strain …)
[2] = molecular target: T1, HCV 2a亚型 JFH1 毒株的 E2蛋白 (on virus) (hepatitis C virus subtype 2a, strain …, UniProt Q99IB8 384-750)
T1 sequence: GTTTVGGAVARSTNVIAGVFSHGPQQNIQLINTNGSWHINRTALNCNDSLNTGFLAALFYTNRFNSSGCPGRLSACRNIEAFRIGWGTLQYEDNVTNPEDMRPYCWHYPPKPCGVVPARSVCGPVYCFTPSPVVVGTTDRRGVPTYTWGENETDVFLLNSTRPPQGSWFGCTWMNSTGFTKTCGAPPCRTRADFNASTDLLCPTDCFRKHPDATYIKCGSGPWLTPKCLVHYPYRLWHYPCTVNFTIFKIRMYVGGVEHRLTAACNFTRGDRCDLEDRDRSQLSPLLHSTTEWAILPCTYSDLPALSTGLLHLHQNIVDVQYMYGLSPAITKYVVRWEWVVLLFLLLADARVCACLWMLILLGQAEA

[3] = molecular target: HCV 1b亚型 PR79 毒株的 E2蛋白 (on virus) (hepatitis C virus subtype 1b, strain …)
[4] = molecular target: HCV 1b亚型 PR52B6M 毒株的 E2蛋白 (on virus) (hepatitis C virus subtype 1b, strain …)

Measured: 对 HCV真病毒的抑制率 (真病毒中和试验)

B1: 全人单克隆抗体7F2 (antibody, V domains shown)
VH: QVQLQQWGAGLLKPSETLSLTCAVYGGSFSGYYWNWIRQPPGKGLEWIGEINPRGTANHNPSLKSRVTISVGTSRNQFSLKLRAVTAADTAVYYCARGIHDTLTGYLAFYFDYWGQGTPVTVSS
VL: DIQMTQSPSSLSASVGDTVTITCRASQNIDRHLNWYQQKAGKAPKVLIYAASGLQSGVSSRFSGSGSGTEFTLTINDLEPEDFATYYCQQYYDTLGYTFGQGTKVEIK
> 90%: [1] | [2] | [3] | [4]
